Measurements published in patent US20250115678A1 (AstraZeneca / MedImmune, published 2025).

T1: LRRC15 on LRRC15pos tumour cell lines (Saos-2 WT, RPMI-7951 WT) (UniProt Q8TF66 22-581, limits assumed)
T1 construct: whole, on cells; also called leucine rich repeat containing 15
T1 sequence (looked up): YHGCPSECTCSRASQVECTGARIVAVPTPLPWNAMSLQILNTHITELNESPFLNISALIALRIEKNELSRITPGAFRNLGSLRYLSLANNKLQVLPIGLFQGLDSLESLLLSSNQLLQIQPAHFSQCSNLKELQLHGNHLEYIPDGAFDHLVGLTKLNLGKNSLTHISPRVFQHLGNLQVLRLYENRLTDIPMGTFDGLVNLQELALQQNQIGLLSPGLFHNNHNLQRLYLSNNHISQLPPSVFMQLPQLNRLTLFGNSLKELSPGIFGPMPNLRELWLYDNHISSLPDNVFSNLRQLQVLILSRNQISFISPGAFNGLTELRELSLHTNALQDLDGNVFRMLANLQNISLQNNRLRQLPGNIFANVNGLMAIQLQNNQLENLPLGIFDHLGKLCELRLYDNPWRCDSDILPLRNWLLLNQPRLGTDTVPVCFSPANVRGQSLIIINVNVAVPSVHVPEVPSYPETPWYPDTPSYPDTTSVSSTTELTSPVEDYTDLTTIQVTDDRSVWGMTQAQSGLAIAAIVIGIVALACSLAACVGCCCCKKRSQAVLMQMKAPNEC

B1: LRC150016 (other)
light: DIQMTQSPSSLSASVGDRVTITCRASQDISNYLNWYQQKPGGAVKFLIYYTSRLHSGVPSRFSGSGSGTDYTLTISSLQPEDFATYFCQQGEALPWTFGGGTKVEIKRTVAAPSVFIFPPSDEQLKSGTASVVCLLNNFYPREAKVQWKVDNALQSGNSQESVTEQDSKDSTYSLSSTLTLSKADYEKHKVYACEVTHQGLSSPVTKSFNRGEC
heavy 1: EVQLVQSGAEVKKPGASVKVSCKASGYKFSSYWIEWVKQAPGQGLEWIGEILPGSDTTNYNEKFKDRATFTSDTSINTAYMELSRLRSDDTAVYYCARDRGNYRAWFGYWGQGTLVTVSSASTKGPSVFPLAPSSKSTSGGTAALGCLVKDYFPEPVTVSWNSGALTSGVHTFPAVLQSSGLYSLSSVVTVPSSSLGTQTYICNVNHKPSNTKVDKRVEPKSCDKTGGSEVQLVESGGGLVQPGGSLRLSCVASGDVHKINFLGWYRQAPGKEREKVAHISIGDQTDYADSAKGRFTISRDESKNMVYLQMNSLKPEDTAVYFCRAFSRIYPYDYWGQGTLVTVSSGGGGSTHTCPPCPAPPVAGPSVFLFPPKPKDTLMISRTPEVTCVVVDVKHEDPEVKFNWYVDGVEVHNAKTKPREEQYNSTYRVVSVLTVLHQDWLNGKEYKCKVSNKALPAPIEKTISKAKGQPREPQVCTLPPSREEMTKNQVSLSCAVKGFYPSDIAVEWESNGQPENNYKTTPPVLDSDGSFFLVSKLTVDKSRWQQGNVFSCSVMHEALHNRFTQKSLSLSPGK
heavy 2: EVQLVQSGAEVKKPGASVKVSCKASGYKFSSYWIEWVKQAPGQGLEWIGEILPGSDTTNYNEKFKDRATFTSDTSINTAYMELSRLRSDDTAVYYCARDRGNYRAWFGYWGQGTLVTVSSASTKGPSVFPLAPSSKSTSGGTAALGCLVKDYFPEPVTVSWNSGALTSGVHTFPAVLQSSGLYSLSSVVTVPSSSLGTQTYICNVNHKPSNTKVDKRVEPKSCDKTGGSEVQLLESGGGLVQPGGSLRLSCAASGFTFDDYAIGWFRQAPGKEREGVSCIRVSDGSTYYADSVKGRFTISRDNSKNTLYLQMNSLRAEDTAVYYCAAGSLYTCVQSIVWPARPYYDMDYWGQGTLVTVSSGGGGSTHTCPPCPAPPVAGPSVFLFPPKPKDTLMISRTPEVTCVVVDVKHEDPEVKFNWYVDGVEVHNAKTKPREEQYNSTYRVVSVLTVLHQDWLNGKEYKCKVSNKALPAPIEKTISKAKGQPREPQVYTLPPCREEMTKNQVSLWCLVKGFYPSDIAVEWESNGQPENNYKTTPPVLDSDGSFFLYSKLTVDKSRWQQGNVFSCSVMHEALHNHYTQKSLSLSPGK
notes: also called LRC150016 (LRRC15); LRC150016 engager
B2: LM1653 (other)
light: DVVMTQSPLSLPVTPGEPASISCRSSQSLVHSNRNTYLHWYLQKPGQSPQLLIYKVSNRFSGVPDRFSGSGSGTDFTLKISRVEAEDVGVYYCSQNTHVPPTFGQGTKLEIKRTVAAPSVFIFPPSDEQLKSGTASVVCLLNNFYPREAKVQWKVDNALQSGNSQESVTEQDSKDSTYSLSSTLTLSKADYEKHKVYACEVTHQGLSSPVTKSFNRGEC
heavy 1: QVQLVQSGAEVKKPGASVKVSCKASGYTFTDYEMHWVRQAPGQGLEWMGALDPKTGDTAYSQKFKGRVTLTADKSTSTAYMELSSLTSEDTAVYYCTRFYSYTYWGQGTLVTVSSASTKGPSVFPLAPSSKSTSGGTAALGCLVKDYFPEPVTVSWNSGALTSGVHTFPAVLQSSGLYSLSSVVTVPSSSLGTQTYICNVNHKPSNTKVDKRVEPKSCDKTGGSEVQLVESGGGLVQPGGSLRLSCVASGDVHKINFLGWYRQAPGKEREKVAHISIGDQTDYADSAKGRFTISRDESKNMVYLQMNSLKPEDTAVYFCRAFSRIYPYDYWGQGTLVTVSSGGGGSTHTCPPCPAPPVAGPSVFLFPPKPKDTLMISRTPEVTCVVVDVKHEDPEVKFNWYVDGVEVHNAKTKPREEQYNSTYRVVSVLTVLHQDWLNGKEYKCKVSNKALPAPIEKTISKAKGQPREPQVCTLPPSREEMTKNQVSLSCAVKGFYPSDIAVEWESNGQPENNYKTTPPVLDSDGSFFLVSKLTVDKSRWQQGNVFSCSVMHEALHNHYTQKSLSLSPGK
heavy 2: QVQLVQSGAEVKKPGASVKVSCKASGYTFTDYEMHWVRQAPGQGLEWMGALDPKTGDTAYSQKFKGRVTLTADKSTSTAYMELSSLTSEDTAVYYCTRFYSYTYWGQGTLVTVSSASTKGPSVFPLAPSSKSTSGGTAALGCLVKDYFPEPVTVSWNSGALTSGVHTFPAVLQSSGLYSLSSVVTVPSSSLGTQTYICNVNHKPSNTKVDKRVEPKSCDKTGGSEVQLLESGGGLVQPGGSLRLSCAASGFTFDDYAIGWFRQAPGKEREGVSCIRVSDGSTYYADSVKGRFTISRDNSKNTLYLQMNSLRAEDTAVYYCAAGSLYTCVQSIVWPARPYYDMDYWGQGTLVTVSSGGGGSTHTCPPCPAPPVAGPSVFLFPPKPKDTLMISRTPEVTCVVVDVKHEDPEVKFNWYVDGVEVHNAKTKPREEQYNSTYRVVSVLTVLHQDWLNGKEYKCKVSNKALPAPIEKTISKAKGQPREPQVYTLPPCREEMTKNQVSLWCLVKGFYPSDIAVEWESNGQPENNYKTTPPVLDSDGSFFLYSKLTVDKSRWQQGNVFSCSVMHEALHNHYTQKSLSLSPGK
notes: also called GPC3 TITAN; LM1653 (GPC3)

What was measured:
[1] = target: T1, LRRC15 on LRRC15pos tumour cell lines …; assay: Flow cytometry on RPMI-7951 WT cells (LRRC15pos), detected with anti-human Fc Alexa Fluor 647 (MFI)
[2] = target: T1, LRRC15 on LRRC15pos tumour cell lines …; assay: Flow cytometry on Saos-2 WT cells (LRRC15pos), detected with anti-human Fc Alexa Fluor 647 (MFI)
[3] = target: T2, GPC3 on human hepatoma cells (Hep3B, HepG2) (human, UniProt P51654 25-554); assay: flow cytometry on HepG2 cells, goat anti-human-IgG-APC; HepG2 cells
T2 construct: whole, on cells; also called Glypican-3
T2 sequence (P51654 25-554 limits assumed): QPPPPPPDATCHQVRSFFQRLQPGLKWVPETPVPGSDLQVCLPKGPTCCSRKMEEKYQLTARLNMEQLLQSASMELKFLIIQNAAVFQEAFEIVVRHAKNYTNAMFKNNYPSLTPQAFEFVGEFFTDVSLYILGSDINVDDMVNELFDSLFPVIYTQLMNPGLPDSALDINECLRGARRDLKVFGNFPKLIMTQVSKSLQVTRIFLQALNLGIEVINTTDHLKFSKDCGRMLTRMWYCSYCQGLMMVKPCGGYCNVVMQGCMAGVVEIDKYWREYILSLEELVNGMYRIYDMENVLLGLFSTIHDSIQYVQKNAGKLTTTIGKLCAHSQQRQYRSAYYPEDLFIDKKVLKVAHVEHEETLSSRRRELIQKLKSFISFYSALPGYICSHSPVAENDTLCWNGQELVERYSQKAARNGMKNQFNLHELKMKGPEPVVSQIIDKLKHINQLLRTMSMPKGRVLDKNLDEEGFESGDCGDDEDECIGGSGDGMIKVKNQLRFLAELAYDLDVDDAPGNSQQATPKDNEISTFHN
Protocol: (§1) Cell bindings were measured by flow cytometry.
as §1

[4] = target: T3, recombinant cynomolgus monkey CD8ab (cynomolgus monkey); assay: SPR (Biacore), soluble antigen, mean ± SD of three experiments
T3 construct: Soluble form of the CD8 alpha/beta heterodimer; construct not described
Protocol: (§2) KD were calculated as the ratio of koff/kₒₙ from a non-linear fit of the data. Values are presented as mean±standard deviation (SD) of three experiments.

recombinant human CD8ab = target: T4, recombinant human CD8ab (human, UniProt P01732 22-182; P10966 22-170); assay: as above
T4 construct: Soluble form of the CD8 alpha/beta heterodimer; construct not described
T4 sequence (P01732 22-182, chain 1 of 2): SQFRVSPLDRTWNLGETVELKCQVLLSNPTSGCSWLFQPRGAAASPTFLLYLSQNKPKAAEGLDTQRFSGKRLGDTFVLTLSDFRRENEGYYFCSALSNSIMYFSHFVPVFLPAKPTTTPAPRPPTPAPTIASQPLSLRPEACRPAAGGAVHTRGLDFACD
T4 sequence (P10966 22-170, chain 2 of 2): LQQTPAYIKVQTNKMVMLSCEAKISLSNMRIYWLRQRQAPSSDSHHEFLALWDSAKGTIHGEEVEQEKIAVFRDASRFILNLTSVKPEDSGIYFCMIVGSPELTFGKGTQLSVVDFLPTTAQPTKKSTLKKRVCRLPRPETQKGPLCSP
Protocol: as §2

[5] = target: T5, soluble recombinant human GPC3 protein (human, UniProt P51654 25-559, biotinylated in the biolayer interferometry assay); assay: as above
T5 construct: also called GPC3 human
T5 sequence (P51654 25-559 limits assumed): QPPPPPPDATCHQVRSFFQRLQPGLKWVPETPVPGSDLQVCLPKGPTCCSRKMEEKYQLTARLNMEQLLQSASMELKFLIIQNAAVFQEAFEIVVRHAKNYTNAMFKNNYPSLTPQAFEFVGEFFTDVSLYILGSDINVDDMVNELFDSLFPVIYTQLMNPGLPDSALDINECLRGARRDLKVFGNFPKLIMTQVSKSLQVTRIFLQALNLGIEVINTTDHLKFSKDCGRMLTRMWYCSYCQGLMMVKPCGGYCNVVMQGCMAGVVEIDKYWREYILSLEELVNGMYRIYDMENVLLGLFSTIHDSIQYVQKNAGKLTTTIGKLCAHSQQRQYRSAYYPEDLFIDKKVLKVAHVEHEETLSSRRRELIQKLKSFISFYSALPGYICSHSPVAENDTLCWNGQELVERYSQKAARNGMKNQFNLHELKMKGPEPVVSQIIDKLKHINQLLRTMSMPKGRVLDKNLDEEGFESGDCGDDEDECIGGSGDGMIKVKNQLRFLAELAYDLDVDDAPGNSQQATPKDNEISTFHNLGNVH
Protocol: as §2

[6] = target: recombinant cynomolgus monkey GPC3 (cynomolgus monkey, UniProt A0A2K5VK50 24-558); assay: as above
Protocol: as §2

[7] = target: T2, GPC3 on human hepatoma cells (Hep3B, …); assay: flow cytometry on Hep3B cells, goat anti-human-IgG-APC; Hep3B cells
Protocol: as §1, §1

Row | Binder | EC50 (read off the curve) [1] [nM] | EC50 (read off the curve) [2] [nM] | EC50 [3] [nM] | Kd [4] [nM] | koff [4] [s⁻¹] | kon [4] [M⁻¹ s⁻¹] | Kd (recombinant human CD8ab) [nM] | koff (recombinant human CD8ab) [s⁻¹] | kon (recombinant human CD8ab) [M⁻¹ s⁻¹] | Kd [5] [nM] | koff [5] [s⁻¹] | kon [5] [M⁻¹ s⁻¹] | Kd [6] [nM] | koff [6] [s⁻¹] | kon [6] [M⁻¹ s⁻¹] | EC50 [7] [nM]
1 | B1 | ~3 | ~2 | – | – | – | – | – | – | – | – | – | – | – | – | – | –
2 | B2 | – | – | 2 | 62.4 | 0.0329 | 527000 | 82.7 | 0.028 | 340000 | 0.67 | 0.000226 | 341000 | 0.82 | 0.000267 | 326000 | 8
